Source: publication PMC4364632, “Engineering a fungal peroxidase that degrades lignin at very acidic pH” (Biotechnology for Biofuels, 2014)

Experiments:
VP1 [1] = system: T1, VP1; assay: ABTS cation radical formation at […] nm, steady-state kinetics; assay type: biochemical, Pleurotus ostreatus; conditions: 0.1 mM H2O2, 0.1 M tartrate pH 3.5, 25°C; biphasic, high-efficiency site (catalytic Trp)
T1 construct: mature protein, signal peptide removed, untagged in pET23a

VP1 [2] = system: T1, VP1; assay: RB5 disappearance at […] nm, steady-state kinetics; assay type: biochemical, Pleurotus ostreatus; conditions: 0.1 mM H2O2, 0.1 M tartrate pH 3.5, 25°C
VP1 [3] = system: T1, VP1; assay: dimeric coerulignone formation at […] nm, steady-state kinetics; assay type: biochemical, Pleurotus ostreatus; conditions: 0.1 mM H2O2, 0.1 M tartrate pH 3.5, 25°C; biphasic, high-efficiency site (catalytic Trp)
VP1 [4] = system: T1, VP1; assay: veratraldehyde formation at […] nm, steady-state kinetics; assay type: biochemical, Pleurotus ostreatus; conditions: 0.1 mM H2O2, 0.1 M tartrate pH 3.0, 25°C
purified protein [5] = substrate: Nc1c(N=Nc2ccc(S(=O)(=O)CCOS(=O)(=O)O)cc2)c(S(=O)(=O)O)cc2cc(S(=O)(=O)O)c(N=Nc3ccc(S(=O)(=O)CCOS(=O)(=O)O)cc3)c(O)c12; assay: purified protein; assay type: biochemical, Gelatoporia subvermispora; conditions: 0.1 mM H2O2, 0.1 M tartrate pH 3.5, 25°C
purified protein [6] = substrate: COc1ccccc1OC(CO)C(O)c1cc(OC)c(OC)c(OC)c1; assay: purified protein; assay type: biochemical, Gelatoporia subvermispora; conditions: 0.1 mM H2O2, 100 mM BR buffer pH 3.0, 25°C, unit doubtful: printed kcat/Km (s^-1.mM^-1) implies mM
purified protein [7] = substrate: COc1ccc(CO)cc1OC; assay: purified protein; assay type: biochemical, Gelatoporia subvermispora; conditions: 0.1 mM H2O2, 0.1 M tartrate pH 3.0, 25°C
purified protein [8] = substrate: CCn1c(=NN=c2sc3cc(S(=O)(=O)O)ccc3n2CC)sc2cc(S(=O)(=O)O)ccc21; assay: purified protein; assay type: biochemical, Gelatoporia subvermispora; conditions: 0.1 mM H2O2, 0.1 M tartrate pH 3.5, 25°C
purified protein [9] = substrate: COc1ccc(CO)cc1OC; assay: purified protein; assay type: biochemical, Phanerodontia chrysosporium; conditions: 0.1 mM H2O2, 0.1 M tartrate pH 3.0, 25°C
purified protein [10] = substrate: CCn1c(=NN=c2sc3cc(S(=O)(=O)O)ccc3n2CC)sc2cc(S(=O)(=O)O)ccc21; assay: purified protein; assay type: biochemical, Phanerodontia chrysosporium; conditions: 0.1 mM H2O2, 0.1 M tartrate pH 3.5, 25°C
purified protein [11] = substrate: COc1cccc(OC)c1O; assay: purified protein; assay type: biochemical, Phanerodontia chrysosporium; conditions: 0.1 mM H2O2, 0.1 M tartrate pH 3.5, 25°C

## CCn1c(=NN=c2sc3cc(S(=O)(=O)O)ccc3n2CC)sc2cc(S(=O)(=O)O)ccc21 [2,2'-azino-bis(3-ethylbenzothiazoline-6-sulfonate)]
VP1 [1]
  Km: 4 ± 0.4 µM

## Nc1c(N=Nc2ccc(S(=O)(=O)CCOS(=O)(=O)O)cc2)c(S(=O)(=O)O)cc2cc(S(=O)(=O)O)c(N=Nc3ccc(S(=O)(=O)CCOS(=O)(=O)O)cc3)c(O)c12 [Reactive Black 5]
VP1 [2]
  Km: 5.4 ± 0.2 µM

## COc1cccc(OC)c1O [2,6-dimethoxyphenol]
VP1 [3]
  Km: 54 ± 4 µM

## COc1ccc(CO)cc1OC [veratryl alcohol]
VP1 [4]
  Km: 5500 ± 46 µM

B1: MnP6 (Gelatoporia subvermispora B; S171W/S189W) (protein)
chain: APTAVCSDGTRVSNAVCCDFVSLGQDLQSMVLQGDCGEDAHEIIRLTFHDAVAISRKLGPSAGGGADGSMLLFPLVEPEFAASNGIDDSVNNLIPFLSLHPTISAGDLVQFAGAVALSNCPGAPRVQFLAGRPNHTIAAIDGLIPEPQDNVTWILERFDDAGGFTPFEVVWLLASHTIARADKVDPTLDAAPFDTTPFTFDSQIFLEVLLKGVGFPGLDNNTGEVSSPLPLGDTSTGGKDTGLMRLQSDFALAHDPRTACFWQGFVDQQEFMSQSFASAFAKLAVLGHNTDDLIDCSEVVPVPKPAVDKPTTFPATTGPQDLELSCLAERFPTLSVDPGAQETLIPHCSDGLENCTSVQFSGPATDSP
notes: mature protein, signal peptide removed, untagged in pET23a; S168W and S168W-environment variants
Purified protein [5]
  Km: 12.6 ± 3 µM
  kcat: 7.8 ± 1.1 s⁻¹
  kcat/Km: 619000 ± 27000 M⁻¹ s⁻¹
Purified protein [6]
  Km: 0.0049 ± 0.0013 mM
Purified protein [7]
  Km: 2740 ± 560 µM
  kcat: 0.54 ± 0.04 s⁻¹
  kcat/Km: 197 M⁻¹ s⁻¹
Purified protein [8]
  Km: 60.2 ± 13.4 µM
  kcat: 1.4 ± 0.1 s⁻¹
  kcat/Km: 23000 ± 3000 M⁻¹ s⁻¹

B2: MnP6 (Gelatoporia subvermispora B; F279E/F283M/F289K/Q292N/S171W/S189W/S293R/S296G/T183S) (protein)
chain: APTAVCSDGTRVSNAVCCDFVSLGQDLQSMVLQGDCGEDAHEIIRLTFHDAVAISRKLGPSAGGGADGSMLLFPLVEPEFAASNGIDDSVNNLIPFLSLHPTISAGDLVQFAGAVALSNCPGAPRVQFLAGRPNHTIAAIDGLIPEPQDNVTWILERFDDAGGFSPFEVVWLLASHTIARADKVDPTLDAAPFDTTPFTFDSQIFLEVLLKGVGFPGLDNNTGEVSSPLPLGDTSTGGKDTGLMRLQSDFALAHDPRTACEWQGMVDQQEKMSNRFAGAFAKLAVLGHNTDDLIDCSEVVPVPKPAVDKPTTFPATTGPQDLELSCLAERFPTLSVDPGAQETLIPHCSDGLENCTSVQFSGPATDSP
notes: as for B1
Purified protein [5]
  Km: 5.4 ± 3 µM
  kcat: 7 ± 1.1 s⁻¹
  kcat/Km: 1.31e+06 ± 100000 M⁻¹ s⁻¹
Purified protein [7]
  Km: 21600 ± 200 µM
  kcat: 1.69 ± 0.04 s⁻¹
  kcat/Km: 78 M⁻¹ s⁻¹

B3: LiP-H8 (Phanerodontia chrysosporium) (protein)
chain: ATCSNGKTVGDASCCAWFDVLDDIQQNLFHGGQCGAEAHESIRLVFHDSIAISPAMEAQGKFGGGGADGSIMIFDDIETAFHPNIGLDEIVKLQKPFVQKHGVTPGDFIAFAGRVALSNCPGAPQMNFFTGRAPATQPAPDGLVPEPFHTVDQIINRVNDAGEFDELELVWMLSAHSVAAVNDVDPTVQGLPFDSTPGIFDSQFFVETQLRGTAFPGSGGNQGEVESPLPGEIRIQSDHTIARDSRTACEWQSFVNNQSKLVDDFQFIFLALTQLGQDPNAMTDCSDVIPQSKPIPGNLPFSFFPAGKTIKDVEQACAETPFPTLTTLPGPETSVQRIPPPPGA
Purified protein [9]
  Km: 190 ± 17 µM
  kcat: 17.5 ± 0.5 s⁻¹
  kcat/Km: 92000 ± 6000 M⁻¹ s⁻¹
Purified protein [10]
  Km: 23.0 ± 1.6 µM
  kcat: 13 ± 0.2 s⁻¹
  kcat/Km: 563000 ± 36000 M⁻¹ s⁻¹
Purified protein [11]
  Km: 5.8 ± 0.5 µM
  kcat: 10 ± 0.1 s⁻¹
  kcat/Km: 1.72e+06 ± 153000 M⁻¹ s⁻¹
